Results: patent US20200283523A1 (WUXI BIOLOGICS IRELAND, published 2020)

Legend:
human CD19 = molecular target: T1, human CD19 (human, UniProt P15391 20-556); assay: flow cytometry on Ramos cells
T1 construct: whole, on cells; also called CD19 on Ramos cells; CD19 on Raji cells
T1 sequence (looked up): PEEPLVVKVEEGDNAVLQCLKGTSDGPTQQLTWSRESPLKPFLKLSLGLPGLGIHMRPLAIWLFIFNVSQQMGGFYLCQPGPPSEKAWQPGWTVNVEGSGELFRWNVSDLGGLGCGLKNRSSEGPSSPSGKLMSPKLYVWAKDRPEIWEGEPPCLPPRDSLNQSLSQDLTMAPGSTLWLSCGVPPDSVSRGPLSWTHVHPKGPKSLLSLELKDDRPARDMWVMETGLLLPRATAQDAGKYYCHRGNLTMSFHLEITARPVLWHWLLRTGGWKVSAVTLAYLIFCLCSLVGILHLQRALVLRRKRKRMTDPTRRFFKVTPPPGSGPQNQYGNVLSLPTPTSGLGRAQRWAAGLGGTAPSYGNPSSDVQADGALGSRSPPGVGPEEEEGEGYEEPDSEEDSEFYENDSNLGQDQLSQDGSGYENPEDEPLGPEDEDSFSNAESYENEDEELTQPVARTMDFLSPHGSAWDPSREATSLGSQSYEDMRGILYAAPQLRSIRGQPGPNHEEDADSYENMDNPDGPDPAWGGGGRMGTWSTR

FcγRI = FcγRI (UniProt P12314 16-288, limits assumed); assay: SPR (Biacore), receptor captured on anti-his chip, antibody injected, 1:1 Langmuir fit
Chain of FcγRI (P12314 16-288 limits assumed): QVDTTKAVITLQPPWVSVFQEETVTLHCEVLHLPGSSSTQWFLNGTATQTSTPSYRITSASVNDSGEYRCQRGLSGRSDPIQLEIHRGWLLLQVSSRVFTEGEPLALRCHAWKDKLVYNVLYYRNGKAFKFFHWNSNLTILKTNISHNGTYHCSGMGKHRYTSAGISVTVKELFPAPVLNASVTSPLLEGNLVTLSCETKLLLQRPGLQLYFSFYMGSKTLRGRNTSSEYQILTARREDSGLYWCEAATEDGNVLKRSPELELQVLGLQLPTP
Protocol: Antibody binding affinity to FcγRs was detected using Biacore T200 (or Biacore 8K). Each receptor was captured on an anti-his antibody immobilized CMS sensor chip (GE). Antibodies at different concentrations were injected over the sensor chip at a flow rate of 30 uL/min for an association phase of 60 s, followed by 60 s dissociation. The chip was then regenerated by 10 mM glycine (pH 1.5) after each binding cycle.
The sensorgrams of blank surface and buffer channel were subtracted from the test sensorgrams. The experimental data was fitted by 1:1 model using Langmiur analysis (for FcγRI) or steady state model (for other receptors). A molecular weight of 150 KDa was used to calculate the molar concentration of antibodies.

C1Q = molecular target: T2, C1Q (UniProt P02745 23-245; P02746 28-253; P02747 29-245); assay: ELISA, antibody coated on the plate, C1q titrated (axis [C1q] nM), anti-human C1q-HRP detection
T2 construct: also called Clq
T2 sequence (P02745 23-245 limits assumed, chain 1 of 3): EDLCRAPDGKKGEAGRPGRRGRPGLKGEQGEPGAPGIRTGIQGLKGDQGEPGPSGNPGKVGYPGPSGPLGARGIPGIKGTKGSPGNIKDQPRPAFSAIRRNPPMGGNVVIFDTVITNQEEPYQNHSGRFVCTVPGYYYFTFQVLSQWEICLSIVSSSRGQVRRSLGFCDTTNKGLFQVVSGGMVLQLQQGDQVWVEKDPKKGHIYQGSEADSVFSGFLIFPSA
T2 sequence (P02746 28-253 limits assumed, chain 2 of 3): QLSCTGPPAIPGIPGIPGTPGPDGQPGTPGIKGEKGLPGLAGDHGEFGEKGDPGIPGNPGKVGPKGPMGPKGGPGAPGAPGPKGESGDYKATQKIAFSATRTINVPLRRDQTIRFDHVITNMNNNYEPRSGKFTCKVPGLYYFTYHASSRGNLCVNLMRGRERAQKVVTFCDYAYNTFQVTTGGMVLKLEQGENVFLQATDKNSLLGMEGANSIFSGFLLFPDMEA
T2 sequence (P02747 29-245 limits assumed, chain 3 of 3): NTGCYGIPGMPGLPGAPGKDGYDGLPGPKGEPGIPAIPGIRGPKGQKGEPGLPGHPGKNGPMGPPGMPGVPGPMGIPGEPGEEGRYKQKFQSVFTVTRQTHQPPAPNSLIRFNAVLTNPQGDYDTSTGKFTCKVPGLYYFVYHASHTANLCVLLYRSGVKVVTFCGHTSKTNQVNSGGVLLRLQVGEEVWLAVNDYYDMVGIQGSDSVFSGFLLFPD
Protocol: ELISA Plates (Nunc) were coated with antibody samples at 3 μg/mL overnight at 4° C. After blocking and washing, C1q was gradient diluted starting from 600 μg/mL and incubated at room temperature for 2 hr. The plates were then washed and subsequently incubated with sheep anti-human C1q Ab-HRP for 1 hr. After washing, TMB substrate was added and the interaction was stopped by 2 M HCl. The absorbance at 450 nm was read using a microplate reader (Molecular Device).
The binding activity of antibodies to C1Q was tested by ELISA.

cynomolgus CD19 = molecular target: T3, cynomolgus CD19 (cynomolgus monkey, UniProt A0A2K5W8L9 20-557); assay: flow cytometry on CHO-K1 cells expressing cynomolgus CD19 (WBP701.CHO-K1.cpro1.FL.C9)
T3 construct: whole, on cells; also called monkey CD19; WBP701.CHO-K1.cpro1.FL.C9 cells
T3 sequence: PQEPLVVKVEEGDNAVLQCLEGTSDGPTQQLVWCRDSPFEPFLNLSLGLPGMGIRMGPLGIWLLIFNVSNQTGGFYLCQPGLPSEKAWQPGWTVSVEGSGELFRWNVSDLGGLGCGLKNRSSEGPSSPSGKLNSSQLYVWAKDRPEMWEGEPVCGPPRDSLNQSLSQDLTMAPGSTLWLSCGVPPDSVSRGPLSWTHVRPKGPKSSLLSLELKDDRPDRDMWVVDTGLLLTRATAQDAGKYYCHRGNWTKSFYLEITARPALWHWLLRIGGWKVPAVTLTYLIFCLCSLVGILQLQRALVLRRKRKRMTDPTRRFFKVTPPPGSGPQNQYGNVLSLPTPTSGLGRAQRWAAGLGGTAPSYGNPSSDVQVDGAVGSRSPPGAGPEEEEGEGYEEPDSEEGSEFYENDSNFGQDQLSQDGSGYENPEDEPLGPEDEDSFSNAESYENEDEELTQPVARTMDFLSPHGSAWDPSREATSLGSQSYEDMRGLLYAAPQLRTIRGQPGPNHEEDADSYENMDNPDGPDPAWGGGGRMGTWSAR
Protocol: Binding of the CD3×CD19 bispecific antibody to cynomoglus CD19 target protein expressed on CHOK1 cells was determined by flow cytometry analysis. In brief, cynomoglus CD19 over-expressed stable cell line (WBP701.CHOK1.cPro1.C9, WuXi Biologics) were harvested with trypsin and diluted to 1×10⁶ cells/ml in 1% BSA/1×PBS. 1×10⁵ cells/well (100 ul) were added to each well of a 96-well U-plate (Corning, #3799) and centrifuged at 1500 rpm (Eppendorf, #5810R) for 5 minutes before removing the supernatant. Antibodies serially diluted in 1% BSA/1×PBS were added at 100 µl/well to the pelleted cells and incubated at 4° C. for 1 hour. A non-related hIgG4 antibody was used as an isotype control. […] Pelleted cells were resuspended in 100 ul/well Fluorescence-labeled anti-human IgG Fc antibody (Jackson, #109-115-098) 1:150 diluted in 1% BSA/1×PBS for 30 minutes at 4° C. in the dark. […] After the final wash, cells were resuspended in 80 ul 1% BSA/1×PBS and fluorescence values were measured with a FACS Canto II cytometer (BD Biosciences). The amount of cell surface bound anti-CD19&CD3 bispecific antibody was assessed by measuring the mean fluorescence (MFI). The FACS raw data were analyzed by FlowJo software, wells containing no antibody or secondary antibody only were used to establish background fluorescence. […]

B1: W3438-T3U4.E17-1.uIgG4.SP (bispecific antibody)
light 1: DIVMTQSPDSLAVSLGERATINCKSSQSLLNSRTRKNYLAWYQQKPGQPPKLLIYWASTRQSGVPDRFSGSGSGTDFTLTISSLQAEDVAVYYCTQSHTLRTFGGGTKVEIKPDIQNPDPAVYQLRDSKSSDKSVCLFTDFDSQTQVSQSKDSDVYITDKCVLDMRSMDFKSNSAVAWSQKSDFACANAFQNSIIPEDTFFPSPESS
heavy 1: QVQLVQSGAEVKKPGSSVKVSCKASGFAFTDYYIHWVRQAPGQGLEWMGWISPGNVNTKYNENFKGRVTITADKSTSTAYMELSSLRSEDTAVYYCARDGYSLYYFDYWGQGTLVTVLEDLKNVFPPEVAVFEPSEAEISHTQKATLVCLATGFYPDHVELSWWVNGKEVHSGVCTDPQPLKEQPALQDSRYALSSRLRVSATFWQNPRNHFRCQVQFYGLSENDEWTQDRAKPVTQIVSAEAWGRYGPPCPPCPAPEFLGGPSVFLFPPKPKDTLMISRTPEVTCVVVDVSQEDPEVQFNWYVDGVEVHNAKTKPREEQFNSTYRVVSVLTVLHQDWLNGKEYKCKVSNKGLPSSIEKTISKAKGQPREPQVYTLPPCQEEMTKNQVSLWCLVKGFYPSDIAVEWESNGQPENNYKTTPPVLDSDGSFFLYSRLTVDKSRWQEGNVFSCSVMHEALHNHYTQKSLSLSLGK
light 2: DIQLTQSPSFLSASVGDRVTITCSASSTVNYMHWYQQKPGKAPKLLIYSTSNLASGVPSRFSGSGSGTEFTLTISSLQPEDFATYYCHQWSSYPYTFGQGTKLEIKRTVAAPSVFIFPPSDEQLKSGTASVVCLLNNFYPREAKVQWKVDNALQSGNSQESVTEQDSKDSTYSLSSTLTLSKADYEKHKVYACEVTHQGLSSPVTKSFNRGEC
heavy 2: QMQLVQSGPEVKKPGTSVKVSCKASGYAFTSYNMYWVRQARGQRLEWIGYIDPYNGDTTYNQKFKGRVTITRDMSTSTAYMELSSLRSEDTAVYYCLTTAYAMDYWGQGTLVTVSSASTKGPSVFPLAPCSRSTSESTAALGCLVKDYFPEPVTVSWNSGALTSGVHTFPAVLQSSGLYSLSSVVTVPSSSLGTKTYTCNVDHKPSNTKVDKRVESKYGPPCPPCPAPEFLGGPSVFLFPPKPKDTLMISRTPEVTCVVVDVSQEDPEVQFNWYVDGVEVHNAKTKPREEQFNSTYRVVSVLTVLHQDWLNGKEYKCKVSNKGLPSSIEKTISKAKGQPREPQVCTLPPSQEEMTKNQVSLSCAVKGFYPSDIAVEWESNGQPENNYKTTPPVLDSDGSFFLVSRLTVDKSRWQEGNVFSCSVMHEALHNHYTQKSLSLSLGK
notes: Bispecific, bivalent: one anti-CD3 arm with TCR constant domains and one native anti-CD19 Fab arm, IgG4 S228P Fc with knobs-into-holes; also called WBP3438; CD3×CD19 bispecific antibody; copies: 1 + 1 + 1 + 1
With B1 the EC50 (human CD19) was 15.6 nM, the Kd (FcγRI) was 9.79 nM and the binding result (C1Q) was “no binding (tested: about 1500 nM C1q)”. The EC50 (cynomolgus CD19) was 26 nM.
